Results as given in the DeepSol protein solubility set.

Experiment: soluble on expression in E. coli; label from the status in PepcDB or PDB records

Sequence | soluble on expression in E. coli
MLVKSMNFDPLKEAEKIKDEIISWRRDFHMHPELGFEEERTSKIVEEHLREWGYKIKRAGTGIIADIGDGGKTIALRADMDALPIQEENDVPYKSRVPGKMHACGHDAHTAMLLGAAKIIAEHSSELENKVRLIFQPAEEGGNGALKMIEAGALEGVDAIFGIHVWAELPSGIVGIREGPFLAGVGKFIAKIIGKGGHGAAPHFSIDPIPAAADAVLALQRIVAREVDPLESAVVTVGKIQGGTAFNVIPQYVELEGTFRFFTQELGKFLERRIREIIENTAKAHNCKAEVNTEILGPPTINDEKMVKFVAETAKALGLKVGEVRKTLGGEDFAYYLEKVPGAFIALGIRNEEKGIIYPHHHPKFDVDEDVLYLGTALEVALAFNFKG | soluble
MGSDKIHHHHHHMMYTNDNRIVMTLDAGGTNFVFSAIQGGKEIADPVVLPACADCLDKCLGNLVEGFKAIQAGLPEAPVAISFAFPGPADYQAGIIGDLPNFPSFRGGVALGPFLEDIFGIPVFINNDGSLFAYGEALTGVLPEINRRLREAGSTKRYKNLLGVTLGTGFGAGVVIDGELLRGDNAAGGYVWCLRNKKYPEYIVEESVSIRAVMRVYAERSGDAGARTPKEIFEIAEGIRPGNREAAIAAFEELGEMAGDALASAITLIDGLIVIGGGLSGASKYILPVLLKEMNAQTGMMDGARFGRLQKEVYDLDEEKSFAGFARGEAVEVLVPGTNRKVGYDPCKRIGVTFSKQGANRSIAMGAYVFALNHLSK | not soluble
VTMKEASAREIDEVVITGTGAQKKLTVTGAITNVDVDVLKANPSGSMANALAGNVPGILAMQTSGKPGSVSEFWIRGISTFGASNSALVLVDGFERSLDEINVEDVESFSVLKDASATAIYGSKGANGVVLITTKHGKAGK | not soluble
MGSDKIHHHHHHMAKIDFRNKINWRRRFRSPPRVETERDILRIFESDRGRIVNSPAIRRLQQKTQVFPLERNAAVRTRLTHSLEVQQVGRYIAKEVLSRLKELRLLEEYGLEELTGPFESVVEMACLMHDIGNPPFGHFGEAAINDWFRQRLAPGDALGQPLTDDRCEVQALRLHDGETSLNALRRKVRQDLCSFEGNAQGIRLVHTLMRMNLTWAQVGCILKYTRPAWWSEETPASHSYLMKKPGYYLAEEEYVARLRKELDLAPYNRFPLTWIMEAADDISYCVADLEDAVEKRIFSAEQLYQHLYDAWGSHEKGSLFSQVVENAWEKSRANYLKQSAEDQFFMYLRVNTLNKLVPYAARRFIDNLPAIFTGDFNHALLEDDSDCSQLLELYKNVAMKQVFSHPDVEQLELQGYRVISGLLDIYQPLLKLSLEDFSELVAQERVRRLPIASRLYQKLSTRHRLAYVEAVNKLARTAPEFALMEYYYRCRLIQDYISGMTDLYAWDEYRRLMAVE | not soluble
GHMSDLVTKFESLIISKYPVSFTKEQSAQAAQWESVLKSGQIQPHLDQLNLVLRDNTFIVSTLYPTSTDVHVFEVALPLIKDLVASSKDVKSTYTTYRHILRWIDYMQNLLEVSSTDKLEINHD | soluble
MKTHQYELIDEKVFEHEFDNGLKLFIIPKPGFQKTYVTYTTQFGSLDNHFKPIGSQQFVKVPDGVAHFLEHKLFEKEDEDLFTAFAEENAQANAFTSFDRTSYLFSATSNIESNIKRLLNMVETPYFTEETVNKEKGIIAEEIKMYQEQPGYKLMFNTLRAMYSKHPIRVDIAGSVESIYEITKDDLYLCYETFYHPSNMVLFVVGDVSPQSIIKLVEKHENQRNKTYQPRIERAQIDEPREINQRFVSEKMKLQSPRLMLGFKNEPLDESATKFVQRDLEMTFFYELVFGEETEFYQQLLNKDLIDETFGYQFVLEPSYSFSIITSATQQPDLFKQLIMDELRKYKGNLKDQEAFDLLKKQFIGEFISSLNSPEYIANQYAKLYFEGVSVFDMLDIVENITLESVNETSELFLNFDQLVDSRLEMENR | soluble
LLVVGPKFIRANQEYTLVISNFNSQLSKVDLLLKLEGETDNGLSVLNVTKMVDVRRNMNRMINFNMPEDLTAGNYKITIDGQRGFSFHKEAELVYLSKSISGLIQVDKPVFKPGDTVNFRVIVLDTELKPPARVKSVYVTIRDPQRNVIRKWSTAKLYAGVFESDLQIAPTPMLGVWNISVEVEGEELVSKTFEVKEYVLSTFDVQVMPSVIPLEEHQAVNLTIEANYHFGKPVQGVAKVELYLDDDKLKLKKELTVYGKGQVELRFDNFAMDADQQDVPVKVSFVEQYTNRTVVKQSQITVYRYAYRVELIKESPQFRPGLPFKCALQFTHHDGTPAKGISGKVEVSDVRFETTTTSDNDGLIKLELQPSEGTEQLSIHFNAVDGFFFYEDVNKVETVTDAYIKLELKSPIKRNKLMRFMVTCTERMTFFVYYVMSKGNIIDAGFMRPNKQPKYLLQLNATEKMIPRAKILIATVAGRTVVYDFADLAFQELRNNFDLSIDEQEIKPGRQIELSMSGRPGAYVGLAAYDKALLLFNKNHDLFWEDIGQVFDGFHAINENEFDIFHSLGLFARTLDDILFDSANEKTGRNALQSGKPIGKLVSYRTNFQESWLWKNVSIGRSGSRKLIEVVPDTTTSWYLTGFSIDPVYGLGIIKKPIQFTTVQPFYIVENLPYSIKRGEAVVLQFTLFNNLGAEYIADVTLYNVANQTEFVGRPNTDLSYTKSVSVPPKVGVPISFLIKARKLGEMAVRVKASIMLGHETDALEKVIRVMPESLVQPRMDTRFFCFDDHKNQTFPINLDINKKADSGSTKIEFRLNPNLLTTVIKNLDHLLGVPTGCGEQNMVKFVPNILVLDYLHAIGSKEQHLIDKATNLLRQGYQNQMRYRQTDGSFGLWETTNGSVFLTAFVGTSMQTAVKYISDIDAAMVEKALDWLASKQHFSGRFDKAGAEYHKEMQGGLRNGVALTSYVLMALLENDIAKAKHAEVIQKGMTYLSNQFGSINNAYDLSIATYAMMLNGHTMKEEALNKLIDMSFIDADKNERFWNTTNPIETTAYALLSFVMAEKYTDGIPVMNWLVNQRYVTGSFPSTQDTFVGLKALTKMAEKISPSRNDYTVQLKYKKSAKYFKINSEQIDVENFVDIPEDTKKLEINVGGIGFGLLEVVYQFNLNLVNFENRFQLDLEKQNTGSDYELRLKVCASYIPQLTDRRSNMALIEVTLPSGYVVDRNPISEQTKVNPIQKTEIRYGGTSVVLYYDNMGSERNCFTLTAYRRFKVALKRPAYVVVYDYYNTNLNAIKVYEVDKQNLCEICDEEDCPAECGGHHHHHH | soluble
MSLQIQNLTKQFGESKAVNSLQISLPKGEVLGLLGRNGAGKTTTIKMLLGLLTPNEGSITWDGKTFGTSGVTIGYLPEERGLYTKSRVIDQLRYFGRLEGMAKKEVDLAIDHWLDRLAIPEYKFKTAGELSKGNQQKIQLIAALLHNPELLILDEPFSGLDPVNAGMLASIIEEQVQSGKTIILSSHRMEQVEAFCQHVCILKKGEAVVKGQLSDIKKEYGFRNLTIEDTEENEKGLQAIHVSYEKQQGLLYVKVQDDAEALNILQQLQEQGVTLRQFKMLEPTLNEIFVERAK | not soluble
MTDSKYDYSDITPVDINTEEPQICQILYDEDYKQIMGLLLALMKAEEYSERALHITELGINELASHYTIWIYRFNILKNLPNRNLYDELDWCEEIALDNEKNYQIWNYRQLIIGQIMELNNNDFDPYREFDILEAMLSSDPKNHHVWSYRKWLVDTFDLHNDAKELSFVDKVIDTDLKNNSAWSHRFFLLFSKKHLATDNTIDEELNYVKDKIVKCPQNPSTWNYLLGIHERFDRSITQLEEFSLQFVDLEKDQVTSSFALETLAKIYTQQKKYNESRTVYDLLKSKYNPIRSNFWDYQISKLTSV | soluble
RTVTLTRERIRLEDRAVKMSVKTVGKEKVGVLDIPGFYVGLTDDVKVQLQKLEKQNVSSVIIDLRSNGGGALTEAVSLSGLFIPSGPIVQVRDNNGKVREDSDTDGQVFYKGPLVVLVDRFSASASEIFAAAMQDYGRALVVGEPTFGKGTVQQYRSLNRIYDQMLRPEWPALGSVQYTIQKFYRVNGGSTQRKGVTPDIIMPTGNEETETGEKFEDNALPWDSIDAATYVKSGDLTAFEPELLKEHNARIAKDPEFQNIMKDIARFNAMKDKRNIVSLNYAVREKENNEDDATRLARLNERFKREGKPELKKLDDLPKDYQEPDPYLDETVNIALDLAKLEKARPAEQPA | not soluble
MGDQPFIPPPQQTALTVNDHDEVTVWNAAPCPMLPRDQVYVRVEAVAINPSDTKMRGQFATPWAFLGTDYAGTVVAVGSDVTHIQVGDRVYGAQNEMCPRTPDQGAFSQYTVTRGRVWAKIPKGLSFEQAAALPAGISTAGLAMKLLGLPLPSPSADQPPTHSKPVYVLVYGGSTATATVTMQMLRLSGYIPIATCSPHNFDLAKSRGAEEVFDYRAPNLAQTIRTYTKNNLRYALDCITNVESTTFCFAAIGRAGGHYVSLNPFPEHAATRKMVTTDWTLGPTIFGEGSTWPAPYGRPGSEEERQFGEDLWRIAGQLVEDGRLVHHPLRVVQGGFDHIKQGMELVRKGELSGEKLVVRLEGPLEHHHHHH | soluble
MTLGARLVAPMIILLLFIPIELVKAEVITLTPETFSDKIKEKDTAWFVKFCVPWCKHCKKLGNLWEDLGKAMEGDDEIEVGEVDCGTSRAVCTKVEIHSYPTFMLFYNGEEVSKYKGKRDVESLKAFVVEETEKAAEKAQLEDKEL | soluble
MGSDKIHHHHHHMKVLQFNQDATCCVVAASSHQISIFNCDPFGKCFEIDTKNSKKKTSNNNGSASNSESRNNEESILITNGSRDRTDAEEEEDNEDNALVTGNILKEGEFVIEMLFSTSLIAIADRGQGLNKGKKLKIVNTKRKCTICEIVFPHEIVDVVMNRKRMCVLLESDQIFIYDISCMKPLETIDLWEDHYKRSQANSFSNASNTGTLEGDSANLNRVATNLLANATQKSVNGSNPSVRTRRNSLRSKIRPRMVLSNDDRSILCFTAYSSPKKNKPNSEALYDVVIYDTLNVTPVNYLNSVHKGNVACLAVSHDGKLLATASDKGTIIRVFHTGVDSDYMSSRSLFKEFRRGTRLCNLYQLAFDKSMTMIGCVGDTDTIHLFKLDDASNSLPGDNSSNGHWNEEEYILASNSNPSMGTPKEIPLSKPRIANYFSKKIKSSIPNQNLSRNFAYITVNESNRSCLGFPDEFPNQVYIASDDGTFSIYSIPSKPGECVLTKNNKFT | not soluble
AAPSFDCGKPQVEPKKCPGRVVGGCVAHPHSWPWQVSLRTRFGMHFCGGTLISPEWVLTAAHCLEKSPRPSSYKVILGAHQEVNLEPHVQEIEVSRLFLEPTRKDIALLKLSSPAVITDKVIPACLPSPNYVVADRTECFITGWGETQGTFGAGLLKEAQLPVIENKVCNRYEFLNGRVQSTELCAGHLAGGTDSCQGDSGGPLVCFEKDKYILQGVTSWGLGCARPNKPGVYVRVSRFVTWIEGVMRNN | soluble
MGSDKIHHHHHHMALIEVQNLKKYFPVKQGPIDVLLRKPRKFVKAVDGVNFQIDEGKSLGLVGESGSGKTTTGRVILRLEEPTDGKIIFDGRDITKLSKEEMRKLRKEMQIIFQDPMASLNPYMRVGKAIEHALEIHGIGDRSSRKEMVLEMLRRVNLEPAEDIYRRYPRELSGGQRQRVVIARALILKPRLVVADEAVAMLDVSVRSQLLRLLQELRKEFNLTMLFITHDLATTKYVCDEIAVMYLGKIVEIGDFEDIYLNPKHPYTQALISAVPEPSLKKKKKFIPEGETPNPIDVPSGCRFHPRCPYRMDICMKEEPQLKAVEENHKVACHLYN | not soluble
MSLAPAQRAFSDWQVTCNNQNFCVARNTGDHNGLVMTLSRSAGAHTDAVLRIERGGLKSPDASEGEIAPRLLLDGEPLALSGDKWRISPWLLVTDDTATITAFLQMIQEGKAITLRDGNQTISLSDLKAALLFIDAQQKRVGSETAWIKKGDEPPLSVPPAPALKEVVVVNPTPTPLSLEERNDLLDYGNWRMNGLRCSLDPLRREVNVTALTDDKALMMISCEAGAYNTIDLAWIVSRKKPLASRPVRLRLPFNNGQETNELELMNATFDEKSRELVTLAKGRGLSDCGIQARWRFDGQRFRLVRYAAEPTCDNWHGPDAWPTLWITREGHHHHHH | soluble
ETRVRRTKTIVEITGLDARSGSLRINELYRWEPVHDNFKRAGDSYVLNEIMRARGWSPDKLFIEFKNREQILAYMTAKQIRDYVSVSLIVHMYATNPQLVMEAVGNDTLRDMVAHHS | not soluble
